Assay results published in patent publication US12227593B2, “Site-specific conjugation of glycosylated monoclonal antibodies with transglutaminase” (Janssen Biotech, Inc., priority 2020, dated 2025).

Molecular target: T1, MTG (Streptomyces mobaraensis, UniProt P81453)
T1 construct: purchased Activa TI or Zedira
T1 sequence (P81453 77-407): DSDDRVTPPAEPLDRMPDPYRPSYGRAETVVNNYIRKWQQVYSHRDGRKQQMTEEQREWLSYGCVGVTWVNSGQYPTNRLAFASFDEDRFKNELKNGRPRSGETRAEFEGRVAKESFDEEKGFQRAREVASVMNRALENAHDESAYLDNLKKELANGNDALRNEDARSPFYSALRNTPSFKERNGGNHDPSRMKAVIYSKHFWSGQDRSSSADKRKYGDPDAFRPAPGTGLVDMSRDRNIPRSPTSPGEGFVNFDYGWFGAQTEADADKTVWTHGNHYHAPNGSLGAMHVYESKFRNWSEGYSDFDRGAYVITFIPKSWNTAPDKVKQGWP
Experiment: MTG-catalyzed conjugation of 3-APA to mAbs, degree of labeling (DOL) by LC-MS
Type: biochemical, S. mobarensis
Conditions: different IgG backgrounds, MTG and 3-APA at 37° C., per full mAb
Protocol: To assess the suitability of the mAb variants for MTG-catalyzed conjugation, intact mAbs (1 mg/mL) were reacted with 3-azido propylamine (3-APA; 20-100-fold molar excess) and MTG (Activa TI, 5-20% w/v or Zedira, 5-20 units/mg of mAb) in PBS buffer at 22-37° C. for 30 min to overnight. Reactions were stopped by the addition of MTG blocker (Zedira) to 100 μM and analyzed by LC-MS following deglycosylation with PNGase F and reduction with dithiothreitol. The degree of labeling (DOL) was determined by mass spectrometry.
LC-MS was performed on an Agilent 1260 HPLC system connected to an Agilent G6224 MS-TOF Mass Spectrometer. LC was run on an Agilent RP-mAb C4 column (2.1×50 mm, 3.5 micron) at a flow rate of 1 mL/min with the mobile phase 0.1% formic acid in water (A) and 0.1% formic acid in acetonitrile (Sigma-Aldrich Cat #34688) (B) and a gradient of 20% B (0-2 min), 20-60% B (2-3 min), 60-80% B (3-5.5 min). The instrument was operated in positive electro-spray ionization mode and scanned from m/z 600 to 6000. Mass to charge spectrum was deconvoluted using the Maximum Entropy algorithm and DOL was estimated using relative intensities of the deconvoluted masses corresponding to intact mAb (for intact mass) or mAb heavy chain (for reduced mass) with the addition of multiples of 83 Da (corresponding to 3-APA).
Instrument settings included: capillary voltage 3500V; fragmentor 175V; skimmer 65V; gas temperature 325C; drying gas flow 5.0 L/min; nebulizer pressure 30 psig; acquisition mode range 100-7000 with 0.42 scan rate.

Substance	DOL 18 hr
Panitumumab WT deglycosylated: deglycosylated WT panitumumab	2.0
Pertuzumab [Pertuzumab WT]	1.2
Panitumumab [Panitumumab WT]	1.2
Pertuzumab WT deglycosylated: deglycosylated WT pertuzumab	2.0
